In patent US20120301493A1 (UNIVERSIDADE DE SANTIAGO DE COMPOSTELA, published 2012):

B1: muNS (1-448)-HA (other)
chain: MASTKWGDKPMSVSMSHDGSSIRSAASQFLSGPLFHSTPIPPQRKTVLLKFMIGDELVTVQGALAPFDEYWYDNQPLLAQAVEMLASADRLRQFEHYEKFLLKKGHQITEIMNRLRLFFTDVLKVKMEADALPALAQYLMVGTLEAVSTADSPDACVPVTSKILAKQQTIAKSPGRLDEEEYNVIRSRFLTHEVFDLTSDLPGVQPFMDMYYATVPRADSTGWCVYRRKGLLIHAPDEQFSDLTIFSTRLTASRELQLVAGDVAVACFDLMDVSDIAPSHHASVQEERTLGTSRYSNVTANDHPLVFFSPSALRWAIDHACTDSLVSTRNIRVCVGIDPLVTRWTRDGVQEAAILMDDKLPSAGRARMALRTLLLARRSPMTSFLLGALKQSGGQLMEHYRCDAANRYGSPTVPVSHSPPCSKCPELKEQITKLSSSPLPKIDSNVGP
notes: also called N-terminus domain (muNS(1-448)); N-terminus region
B2: muNS (1-380)-HA (other)
chain: MASTKWGDKPMSVSMSHDGSSIRSAASQFLSGPLFHSTPIPPQRKTVLLKFMIGDELVTVQGALAPFDEYWYDNQPLLAQAVEMLASADRLRQFEHYEKFLLKKGHQITEIMNRLRLFFTDVLKVKMEADALPALAQYLMVGTLEAVSTADSPDACVPVTSKILAKQQTIAKSPGRLDEEEYNVIRSRFLTHEVFDLTSDLPGVQPFMDMYYATVPRADSTGWCVYRRKGLLIHAPDEQFSDLTIFSTRLTASRELQLVAGDVAVACFDLMDVSDIAPSHHASVQEERTLGTSRYSNVTANDHPLVFFSPSALRWAIDHACTDSLVSTRNIRVCVGIDPLVTRWTRDGVQEAAILMDDKLPSAGRARMALRTLLLARRSP
B3: muNS (1-154)-HA (other)
chain: MASTKWGDKPMSVSMSHDGSSIRSAASQFLSGPLFHSTPIPPQRKTVLLKFMIGDELVTVQGALAPFDEYWYDNQPLLAQAVEMLASADRLRQFEHYEKFLLKKGHQITEIMNRLRLFFTDVLKVKMEADALPALAQYLMVGTLEAVSTADSPD

What follows are binders tested against muNS-Mi, region 448-635 of avian reovirus S1133 muNS protein (avian Orthoreovirus (avian reovirus …)) (assay: co-expression with muNS-Mi in CEF cells, anti-HA immunofluorescence).

Binder	binding result
B1	no binding
B2	no binding
B3	no binding
